{
  "source": "paper PMC8844851",
  "about": "(The Journal of Biological Chemistry, 2022)",
  "target": "T1, C-terminally FLAG-tagged Cdc123 (S. cerevisiae, UniProt Q05791 1-360)",
  "T1 construct": "Cdc123 of S. cerevisiae; also called Cdc123^FLAG; source: S. cerevisiae, in lysate; not shown: FLAG, C-terminal, kept",
  "T1 sequence (looked up)": "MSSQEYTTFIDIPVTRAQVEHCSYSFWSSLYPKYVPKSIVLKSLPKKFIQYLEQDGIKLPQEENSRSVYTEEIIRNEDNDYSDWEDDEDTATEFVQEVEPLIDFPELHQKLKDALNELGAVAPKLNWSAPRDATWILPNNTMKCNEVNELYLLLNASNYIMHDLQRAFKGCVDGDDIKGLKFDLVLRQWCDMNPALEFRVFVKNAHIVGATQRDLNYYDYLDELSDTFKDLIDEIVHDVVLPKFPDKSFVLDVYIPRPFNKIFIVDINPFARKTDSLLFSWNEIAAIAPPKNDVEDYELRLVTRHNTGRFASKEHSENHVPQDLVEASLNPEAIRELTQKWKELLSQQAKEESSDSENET",
  "test": "co-IP; Cdc123-FLAG precipitated with anti-FLAG beads from yeast extract, 4 °C, 2 h; subunit signal in IP normalised to whole cell extract, Gcd11 set to 100% (n = 3); also SUI2/SUI2 against sui2Δ/SUI2 diploid strains (n = 4)",
  "details": "partners not purified",
  "data": [
    {"binder": "yeast eIF2γ (Gcd11) (natural protein, UniProt P32481 1-527, looked up, Gcd11, eIF2 gamma subunit of S. cerevisiae, untagged endogenous protein detected with antiserum; source: endogenous, S. cerevisiae (W303 derivatives) lysate) MSDLQDQEPSIIINGNLEPVGEPDIVEETEVVAQETQETQDADKPKKKVAFTGLEEDGETEEEKRKREFEEGGGLPEQPLNPDFSKLNPLSAEIINRQATINIGTIGHVAHGKSTVVRAISGVQTVRFKDELERNITIKLGYANAKIYKCQEPTCPEPDCYRSFKSDKEISPKCQRPGCPGRYKLVRHVSFVDCPGHDILMSTMLSGAAVMDAALLLIAGNESCPQPQTSEHLAAIEIMKLKHVIILQNKVDLMREESALEHQKSILKFIRGTIADGAPIVPISAQLKYNIDAVNEFIVKTIPVPPRDFMISPRLIVIRSFDVNKPGAEIEDLKGGVAGGSILNGVFKLGDEIEIRPGIVTKDDKGKIQCKPIFSNIVSLFAEQNDLKFAVPGGLIGVGTKVDPTLCRADRLVGQVVGAKGHLPNIYTDIEINYFLLRRLLGVKTDGQKQAKVRKLEPNEVLMVNIGSTATGARVVAVKADMARLQLTSPACTEINEKIALSRRIEKHWRLIGWATIKKGTTLEPIA", "values": [
      {"measurement": "fold increase of coprecipitation in the sui2Δ/SUI2 strain over SUI2/SUI2", "result": 1.3, "unit": "fold"}
    ]}
  ]
}
